Experimental data from patent US20260028400A1.

Target: ROR1 expressed on cell surface (Jeko-1 cell line, AMB-LC-0003T and AMB-LC-0002T patient-derived lung cancer cells) (human) (UniProt Q01973)
Experiment: cell-based or functional assay

Sequence of ROR1 expressed on cell surface (Jeko-1 cell line, AMB-LC-0003T and AMB-LC-0002T patient-derived lung cancer cells) (human) (Q01973 30-937): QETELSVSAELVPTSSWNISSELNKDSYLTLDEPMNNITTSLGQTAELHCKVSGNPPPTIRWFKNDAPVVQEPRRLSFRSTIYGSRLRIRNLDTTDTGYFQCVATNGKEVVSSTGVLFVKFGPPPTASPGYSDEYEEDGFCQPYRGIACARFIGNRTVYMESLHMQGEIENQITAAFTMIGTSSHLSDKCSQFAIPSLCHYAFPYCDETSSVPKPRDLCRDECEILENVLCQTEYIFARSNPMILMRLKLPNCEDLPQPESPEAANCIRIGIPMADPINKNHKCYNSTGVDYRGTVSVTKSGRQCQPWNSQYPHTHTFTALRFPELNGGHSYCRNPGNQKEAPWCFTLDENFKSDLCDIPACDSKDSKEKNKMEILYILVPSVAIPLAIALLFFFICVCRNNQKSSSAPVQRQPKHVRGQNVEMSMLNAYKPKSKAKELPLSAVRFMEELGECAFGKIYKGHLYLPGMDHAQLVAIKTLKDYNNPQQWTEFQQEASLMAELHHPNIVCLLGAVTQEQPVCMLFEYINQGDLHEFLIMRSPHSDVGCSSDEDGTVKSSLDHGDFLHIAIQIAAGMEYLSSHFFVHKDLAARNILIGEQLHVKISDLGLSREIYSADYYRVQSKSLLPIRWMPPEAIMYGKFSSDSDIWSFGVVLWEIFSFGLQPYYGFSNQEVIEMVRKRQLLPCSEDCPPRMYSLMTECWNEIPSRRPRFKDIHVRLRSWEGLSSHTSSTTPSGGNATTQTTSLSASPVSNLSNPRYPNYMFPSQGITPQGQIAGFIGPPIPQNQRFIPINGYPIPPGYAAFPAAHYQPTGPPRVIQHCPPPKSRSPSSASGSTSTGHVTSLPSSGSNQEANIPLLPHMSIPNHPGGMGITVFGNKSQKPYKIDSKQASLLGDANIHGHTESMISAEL

- Fold Change of IC50, AMB-LC-0002T/AMB-LC-0003T: 11.1 fold
- IC50 (nM), spheroid volume, AMB-LC-0002T (low ROR1 expression): 282 nM
- IC50 (nM), spheroid volume, AMB-LC-0003T (high ROR1 expression): 25.4 nM
Substance: UC961-vc-PAB-MMAE (antibody)
